In publication PMC11551749:
Read-outs that look alike come from different tables or passages of the source.

Tests used:
hnRNPA1 [1] = biological target: T1, hnRNPA1 (human, UniProt P09651 1-372); test: bulk FRET
[2] = biological target: T2, RPA heterotrimer (RPA1/RPA2/RPA3) (human, UniProt P27694;P15927;P35244 1-616;1-270;1-121); test: EMSA
[3] = biological target: hnRNPA1;RPA-E240K heterotrimer (human;human, UniProt P09651;P27694;P15927;P35244 1-372;1-616;1-270;1-121, |E240K); test: bulk FRET
hnRNPA1 [4] = biological target: T1, hnRNPA1; test: bulk FRET; remark: listed apart in the source
[5] = biological target: hnRNPA1;RPA heterotrimer (RPA1/RPA2/RPA3) (human;human, UniProt P09651;P27694;P15927;P35244 1-372;1-616;1-270;1-121, |); test: bulk FRET
hnRNPA1;RPA heterotrimer (RPA1/RPA2/RPA3), sequence (P09651 whole entry, chain 1 of 4): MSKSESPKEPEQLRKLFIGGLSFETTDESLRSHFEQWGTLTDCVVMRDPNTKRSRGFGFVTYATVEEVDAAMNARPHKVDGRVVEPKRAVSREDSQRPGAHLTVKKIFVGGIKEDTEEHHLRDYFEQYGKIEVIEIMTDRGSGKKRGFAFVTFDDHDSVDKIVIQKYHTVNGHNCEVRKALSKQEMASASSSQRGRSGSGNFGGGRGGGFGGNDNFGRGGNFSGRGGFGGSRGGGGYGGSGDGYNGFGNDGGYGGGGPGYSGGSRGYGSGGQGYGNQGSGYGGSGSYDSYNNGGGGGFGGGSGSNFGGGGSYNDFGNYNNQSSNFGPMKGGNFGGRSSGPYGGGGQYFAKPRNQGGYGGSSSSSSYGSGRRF
hnRNPA1;RPA heterotrimer (RPA1/RPA2/RPA3), sequence (P27694 whole entry, chain 2 of 4): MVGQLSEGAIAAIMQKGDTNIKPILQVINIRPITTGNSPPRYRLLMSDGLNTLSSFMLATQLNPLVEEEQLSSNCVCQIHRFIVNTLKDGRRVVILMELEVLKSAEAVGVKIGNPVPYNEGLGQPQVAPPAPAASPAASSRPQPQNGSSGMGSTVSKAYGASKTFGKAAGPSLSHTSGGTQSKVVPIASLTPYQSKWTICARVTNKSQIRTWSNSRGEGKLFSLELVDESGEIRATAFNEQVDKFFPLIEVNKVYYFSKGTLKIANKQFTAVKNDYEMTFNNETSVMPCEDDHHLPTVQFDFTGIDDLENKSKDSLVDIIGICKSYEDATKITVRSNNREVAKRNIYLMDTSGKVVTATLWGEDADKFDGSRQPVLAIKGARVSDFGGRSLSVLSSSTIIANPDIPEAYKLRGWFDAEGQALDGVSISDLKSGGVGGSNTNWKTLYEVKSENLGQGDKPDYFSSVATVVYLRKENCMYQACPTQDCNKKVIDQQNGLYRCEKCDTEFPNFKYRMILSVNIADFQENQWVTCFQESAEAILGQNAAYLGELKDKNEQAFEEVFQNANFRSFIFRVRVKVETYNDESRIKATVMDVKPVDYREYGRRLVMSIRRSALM
hnRNPA1;RPA heterotrimer (RPA1/RPA2/RPA3), sequence (P15927 whole entry, chain 3 of 4): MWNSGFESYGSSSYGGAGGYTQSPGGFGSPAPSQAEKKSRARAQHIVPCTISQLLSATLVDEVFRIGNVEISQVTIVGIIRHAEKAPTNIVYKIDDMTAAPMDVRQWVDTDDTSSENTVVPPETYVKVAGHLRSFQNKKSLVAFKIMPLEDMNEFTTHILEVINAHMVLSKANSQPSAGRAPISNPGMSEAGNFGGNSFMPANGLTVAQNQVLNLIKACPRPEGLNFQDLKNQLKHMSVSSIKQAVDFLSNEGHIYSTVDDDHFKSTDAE
hnRNPA1;RPA heterotrimer (RPA1/RPA2/RPA3), sequence (P35244 whole entry, chain 4 of 4): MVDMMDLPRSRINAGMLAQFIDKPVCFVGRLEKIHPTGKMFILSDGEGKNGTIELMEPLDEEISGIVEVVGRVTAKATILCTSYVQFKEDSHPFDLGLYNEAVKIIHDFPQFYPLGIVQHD

[6] = biological target: T2, RPA heterotrimer (RPA1/RPA2/RPA3); test: bulk FRET
RPA-E240K heterotrimer = RPA-E240K heterotrimer (human, UniProt P27694;P15927;P35244 1-616;1-270;1-121, E240K); test: mass photometry
RPA-E240K heterotrimer, sequence (P27694 whole entry E240K, chain 1 of 3): as the sequence (P27694 whole entry, chain 2 of 4) above, with E240K counted along it
RPA-E240K heterotrimer, sequence (P15927 whole entry, chain 2 of 3): as the sequence (P15927 whole entry, chain 3 of 4) above
RPA-E240K heterotrimer, sequence (P35244 whole entry, chain 3 of 3): as the sequence (P35244 whole entry, chain 4 of 4) above

[7] = biological target: T2, RPA heterotrimer (RPA1/RPA2/RPA3); test: mass photometry

T2 sequence (P27694 whole entry, chain 1 of 3): as the sequence (P27694 whole entry, chain 2 of 4) above
T2 sequence (P15927 whole entry, chain 2 of 3): as the sequence (P15927 whole entry, chain 3 of 4) above
T2 sequence (P35244 whole entry, chain 3 of 3): as the sequence (P35244 whole entry, chain 4 of 4) above
T1 sequence (P09651 whole entry): as the sequence (P09651 whole entry, chain 1 of 4) above
hnRNPA1;RPA-E240K heterotrimer, sequence (P09651 whole entry, chain 1 of 4): as above
hnRNPA1;RPA-E240K heterotrimer, sequence (P27694 whole entry E240K, chain 2 of 4): as the sequence (P27694 whole entry, chain 2 of 4) above, with E240K counted along it
hnRNPA1;RPA-E240K heterotrimer, sequence (P15927 whole entry, chain 3 of 4): as the sequence (P15927 whole entry, chain 3 of 4) above
hnRNPA1;RPA-E240K heterotrimer, sequence (P35244 whole entry, chain 4 of 4): as the sequence (P35244 whole entry, chain 4 of 4) above

TTAGGGTTAGGGTTA (ssDNA) [h-tel-15(FRET)]
Kd (hnRNPA1 [1]): 0.0735 ± 0.0043 µM

TTAGGGTTAGGGTTAGGGTTAGGGTTAGGG (structured_DNA) [h-telG4 (FRET), five telomeric repeats]
binding result [2]: binds | Kd [3]: 0.0759 ± 0.0255 µM | Kd (hnRNPA1 [4]): 0.0206 ± 0.0035 µM | Kd [5]: 0.0274 ± 0.0027 µM

TTTTTTTTTTTTTTTTTTTTTTTTTTTTTT (ssDNA) [dT30]
binding result [6]: binds

AGGGGCGGGCGCTTTAGGAAAAGGGCGGGT (structured_DNA) [BCL-2G4 1245]
binding result [6]: binds

TGGGGAGGGTGGGGAGGGTGGGGAAGG (structured_DNA) [PU27G4]
binding result [6]: binds

TTAGGGTTAGGGTTAGGGTTAGGGTTAGGG (structured_DNA) [h-telG4 (MP)]
binding result (RPA-E240K heterotrimer): binds | binding result [7]: binds
